# Laboratory results from the DeepSol protein solubility set.
# Test: soluble on expression in E. coli; label from the status in PepcDB or PDB records
row,Sequence,soluble on expression in E. coli
1,MAMNNILGLFAHSPLKPLQKHSEKVTECSDLLIPFFQTTFSKNWEQAEEKRLEISQCEREADSLKREIRLKLPRGLFLPIDRTDLLELVTQQDKLANYAKDIAGRMIGRQFGIPEEMQEEFLHYVKRSLDAIHQAHRVIEEMDKLLETGFKGRELKLVNDMIQELDSIEDDTDQMQIKLRKMLYTIESRYNPIDVMFLYKIIEWVGVLADQAQRVGSRIELMLARS,not soluble
2,MGSDKIHHHHHHMDEIVKVLSQHDRILVVGHIMPDGDCVSSVLSLTLGLEKLGKEVKAAVDYKIPYVFEKFPYIDKIEENPNFDPELLVVVDASSPDRIGKFQDLLDKVPSVVIDHHSTNTNFGNWNWVDPSFAATAQMIFRINKALGVEYDSNLATLNYLGIATDTGFFRHSNADVRVFEDAYKLVKMGADAHFVAKEILENKRFEQFKLFAEVLERLQLLENGKIAYSYIDYDTYLRHNCTDEDSAGFVGELRSIRGVEVAVLFMEFPRGKIHVSMRSKDWFNVNEVAFELGGGGHPRAAGVTFEGKKIEEVIPRVINHLLKKFKEGVESESEKIPEGDVLGG,not soluble
3,MTSTPEFLKQLDYEQLKYCRELCDNRIRAIEAEEKKMAWAVTDGGINYGWFRTEDYMKAVECLVATAAERWEESDKADPSGRGWLDLSIRGSRLPVSEYEALFADGQWG,not soluble
4,MTDIISQNENKDDFEDGELPEDGEICDDEDESVKAVPSKSSESAPGAHIAPAHPEKTSGRDSRERVRRFEGNSPPRERDPDPFGSHNDAPDGNDYFGGDKDYRSGAAASSEEEPFSDTDYRVNRRRRLSPSHDDGDFDPRSKRPYYGGRGGFRGGFRNGAKPRFQTEHQICKFFREGYCRDGDNCLYSHQAEDSLRRPVLCNFYANSFCKKGLQCLMLHGEFPCKSFHKGQCNHDPCRFSHVPLTDYTRPIIEKILADEEARQAHQAQQAQTYRQNPVANAAAAAAAAQVMPRRRVLLPGGPNMNGSSPPHATPVIHAPIPQASHPSQLPPPAVVVPTIQRNPGPGIPIHQQYPVAPAAGGYFNQGPRPEQVQGLPPPRTIEPPRLSTQTPPIMHQQQPQLMRPMHPVPIQHPHLQQPGLVQPPQIVSQERHTASPQGFNLEAMLNKMANGEKLISSPRNNVVDDSPASPPPSNYSSMFGSSNRVAVIPQTVQVTWGLVRVQRRLPYSNVENPDRIAANDPRRAKAIAKQFDAFSSLLGAGGNAVSDPRLRAQKEKNDRQQNTMPFSSWMPQIS,not soluble
5,MGSDKIHHHHHHMSFKDIQADFIEAIRRPDLPCPHGIAPQRMGVYRELFFNNVSGFVNSGFPVLKSLYGEAQWQAQLRQFFTEHDCQNPLFIGIAGEFLAFLSARERQVDEPPFLLELAHYEWLELVVATAMEQGDEAAFDDTALAQQAYLDARLGLASHARVAQYHFEVEKISPQYQPDTPLPSPCYFCLYRDSDDEVSFLKLNPMTAQLLAVLEANTGIKYIELLQKMQALYPNFDGQQLREGIAQVLGQMAVRGVVVQKLQ,not soluble
6,EVQLQESGPGLVKPYQSLSLSCTVTGYSITSDYAWNWIRQFPGNKLEWMGYITYSGTTDYNPSLKSRISITRDTSKNQFFLQLNSVTTEDTATYYCARYYYGYWYFDVWGQGTTLTVSSAKTTAPSVYPLAPVSSVTLGCLVKGYFPEPVTLTWNSGSLSSGVHTFPAVLQSDLYTLSSSVTVTSSTWPSQSITCNVAHPASSTKVDKKIEPR,soluble
7,MSLKITSVRSFLLSYPLPEPVRLPFHGGERTILKRDAMFIRVEADSGLIGYAPGPGSEQAHKAIQQTIAPFLEDRVLADPDALRVLFLQGPGIDAELAKIYCAVEIALYDLVGKARGIPISEMIGGRVRDTIRLYGSAGMYMSPEGYAAEAAAIAALGFRAYKMRPAGGPEQDLETVRQMRKAVGPDFDLMVDAHTWWRMGDSSYPADTVEQLARDMSAYHIAWLEEPLPPDDHAGYLALKQKDLVLLATGEHEPNEDRYLDLILTQAVDYIQMDVCCQGGYALGRRLFAEIARQGLSFAFHSWGTALEVMAAAHLGICWPQMIAEWLEYPCYSSPGRVGMYPFPLAAEILTEPLEIERGDLLVPRAPGLGVAVDESVIERYPWIPGPWSYFRIDSPAENRAVTSDHSVQWDPEAKEGHHHHHH,soluble
8,MADRLIVKGAREHNLRSVDLDLPRDALIVFTGLSGSGKSSLAFDTIFAEGQRRYVESLSAYARQFLGQMDKPDVDFIEGLSPAVSIDQKSTNRNPRSTVGTITEVYDYLRLLYARAGTPHCPTCGERVARQTPQQIVDQVLAMPEGTRFLVLAPVVRTRKGEFADLFDKLNAQGYSRVRVDGVVHPLTDPPKLKKQEKHDIEVVVDRLTVKAAAKRRLTDSVETALNLADGIVVLEFVDHELGAPHREQRFSEKLACPNGHALAVDDLEPRSFSFNSPYGACPECSGLGIRKEVDPELVVPDPDRTLAQGAVAPWSNGHTAEYFTRMMAGLGEALGFDVDTPWRKLPAKARKAILEGADEQVHVRYRNRYGRTRSYYADFEGVLAFLQRKMSQTESEQMKERYEGFMRDVPCPVCAGTRLKPEILAVTLAGESKGEHGAKSIAEVCELSIADCADFLNALTLGPREQAIAGQVLKEIRSRLGFLLDVGLEYLSLSRAAATLSGGEAQRIRLATQIGSGLVGVLYVLDEPSIGLHQRDNRRLIETLTRLRDLGNTLIVVEHDEDTIEHADWIVDIGPGAGEHGGRIVHSGPYDELLRNKDSITGAYLSGRESIEIPAIRRSVDPRRQLTVVGAREHNLRGIDVSFPLGVLTSVTGVSGSGKSTLVNDILAAVLANRLNGARQVPGRHTRVTGLDYLDKLVRVDQSPIGRTPRSNPATYTGVFDKIRTLFAATTEAKVRGYQPGRFSFNVKGGRCEACTGDGTIKIEMNFLPDVYVPCEVCQGARYNRETLEVHYKGKTVSEVLDMSIEEAAEFFEPIAGVHRYLRTLVDVGLGYVRLGQPAPTLSGGEAQRVKLASELQKRSTGRTVYILDEPTTGLHFDDIRKLLNVINGLVDKGNTVIVIEHNLDVIKTSDWIIDLGPEGGAGGGTVVAQGTPEDVAAVPASYTGKFLAEVVGGGASAATSRSNRRRNVSA,soluble
9,AVSFIGSTENDVGPSQGSYSSTHAMDNLPFVYNTGYNIGYQNANVWRISGGFCVGLDGKVDLPVVGSLDGQSIYGLTEEVGLLIWMGDTNYSRGTAMSGNSWENVFSGWCVGNYVSTQGLSVHVRPVILKRNSSAQYSVQKTSIGSIRMRPYNGSSAGSVQTTVNFSLNPFTLNDTVT,soluble
10,MNYSLKQLKVFVTVAQEKSFSRAGERIGLSQSAVSHSVKELENHTGVRLLDRTTREVVLTDAGQQLALRLERLLDELNSTLRDTGRMGQQLSGKVRVAASQTISAHLIPQCIAESHRRYPDIQFVLHDRPQQWVMESIRQGDVDFGIVIDPGPVGDLQCEAILSEPFFLLCHRDSALAVEDYVPWQALQGAKLVLQDYASGSRPLIDAALARNGIQANIVQEIGHPATLFPMVAAGIGISILPALALPLPEGSPLVVKRITPVVERQLMLVRRKNRSLSTAAEALWDVVRDQGNALMAGREGDPLYQI,soluble
11,MSQVTADALTAQVVAEYLYEHPDFFQHHPHLVERLALPTQTGAVSLAHVQLARQRQRIDSLEEEITALMSLAANNDRTFHEFMDLQEQILKCSSLQAVLHAIEAKARELNLRAYVRLLQRHDEKYGLASEDWQRFATNHFNGKSAYLGRLRQADRQRLLGDRPAPEMGSYVVLPLQRQAPLGILAFASEDGGHFQPSMDTLFLRHLALVLAHLIETLPWQSHDEERRTHPAS,not soluble
12,ARPAFVNKLWSMVNDKSNEKFIHWSTSGESIVVPNRERFVQEVLPKYFKHSNFASFVRQLNMYGWHKVQDVKSGSMLSNNDSRWEFENERHA,soluble
13,MKTIGILGGMGPLATAELFRRIVIKTPAKRDQEHPKVIIFNNPQIPDRTAYILGKGEDPRPQLIWTAKRLEECGADFIIMPCNTAHAFVEDIRKAIKIPIISMIEETAKKVKELGFKKAGLLATTGTIVSGVYEKEFSKYGVEIMTPTEDEQKDVMRGIYEGVKAGNLKLGRELLLKTAKILEERGAECIIAGCTEVSVVLKQDDLKVPLIDPMDVIAEVAVKVALEK,soluble
14,MSLKYKLLVLDVDGTLLNDAKEISKRTLAALLKVQQMGVRIVLASGRPTYGLMPLAKSLELGNYGGYILSYNGCQIINAQNGEILFERRINPEMLPYLEKKARKNNFALFTYHDDTIITDTPENEHIQNEARLNNLKVIKEEEFSVAIDFAPCKCMLVSDDEEALVSLEGHWKRRLNGALDVFRSEPYFLEVVPCAIDKANTLGALLEELDVKREEVIAIGDGVCDVTMIQLAGLGVAMGHSQDSVKVCADYVTASNEEDGVALAVEKAIIAEVRAAEIPLDQLNAQARHALMGNLGIQYTYADEDRVEATMPVDHRTRQPFGILHGGATLALGETVAGLGSMILCQPDEIVVGMQVSGNHISSAHEGDTVRAVATIVHKGRSSHVWNVDVFTSTNKLVSSIRVVNSVMKKREGHHHHHH,soluble
15,HHHHHHSKEELLKLTETVVTEYLNSGNANEAVNGVREMRAPKHFLPEMLSKVIILSLDRSDEDKEKASSLISLLKQEGIATSDNFMQAFLNVLDQCPKLEVDIPLVKSYLAQFAARAIISELVSISELAQPLESGTHFPLFLLCLQQLAKLQDREWLTELFQQSKVNMQKMLPEIDQNKDRMLEILEGKGLSFLFPLLKLEKELLKQIKLDPSPQTIYKWIKDNISPKLHVDKGFVNILMTSFLQYISSEVNPPSDETDSSSAPSKEQLEQEKQLLLSFKPVMQKFLHDHVDLQVSALYALQVHCYNSNFPKGMLLRFFVHFYDMEIIEEEAFLAWKEDITQEFPGKGKALFQVNQWLTWLETA,soluble
16,MPSFLEISPDKLNRLIGTPGAPRIIDVRTDEDFALDPRLVPGSIRRDHAEVASWADSIDADAVVVVCHRGAKLSHGVAAYLRHAGIEAESLAGGFEAWAAAGPAVPEAKLSRRDAQGRTVWVTRARPKIDRIACPWLIRRFIDPNAVFLFVPAPEVVAVGERFGAAPFDIEDVFWSHRGELCTFDVMVEEFGLASEPLLRLAQIVRAADTARLDLAPEASGLLAASLGLSRMYSDDLEQLEAGMLLYDAFFRWCRDATEETHNWPAPKKRALEHHHHHH,soluble
17,MSLMAVNVNTNVAAMTAQRYLTGATNAQQTSMERLSSGFKINSAKDDAAGLQISNRLNVQSRGLDVAVRNANDGISIAQTAEGAMNETTNILQRMRDLSLQSANGSNSKSERVAIQEEITALNDELNRIAETTSFGGNKLLNGTFSTKSFQIGADNGEAVMLTLKDMRSDNRMMGGTSYVAAEGKDKDWKVQAGANDITFTLKDIDGNDQTITVNAKEGDDIEEVATYINGQTDMVKASVNEKGQLQIFAGNNKVTGDVAFSGGLAGALNMQAGTAETVDTIDVTSVGGAQQSVAVIDSALKYVDSHRAELGAFQNRFNHAISNLDNINENVNASKSRIKDTDFAKETTALTKSQILSQASSSVLAQAKQAPNAALSLLG,soluble
18,MIEAVKPKVLATRLIPNVAPELAGQLGLAQYQRSIGMITCNIDDSTYVALDEATKKADVAVVYAKSFYAGAAHASGPRSGEVIGILAAANPADVRAGIDACIAYLENEAFFYSHDGGKTAWFPHTISSTGSYLSQIAGIPEGEPLAYLIAPPLEAIYGIDAALKAADVAMKVLYGPPTETNFGGALLTGTQSACRAACEDFQRAVIDVAENGMKY,not soluble
